# From US20130196915, “AFFINITY HYDROGELS FOR CONTROLLED PROTEIN RELEASE” (published 2013)
# B1: 61-nt anti-PDGF-BB aptamer (ssDNA)
# DNA: AAAAAAAAAAACAGGCTACGGCACGTAGAGCATCACCATGATCCTGTGACTTGAGCAAAAT
# modifications: 5'-NH2
# Tests used:
# [1] = target: T1, PDGF-BB (Homo sapiens, UniProt P01127 P01127:82-190); experiment: SPR; PBS, 0.05% Tween 20; details: tags: R&D Systems, amine-coupled to SPR chip, chain copies: 2 (inferred, homodimer)
# Method: The molecular interaction between PDGF-BB and the aptamers were studied by SPR spectrometry (SR7000DC, Reichert Analytical Instrument, Depew, N.Y.). PDGF-BB was immobilized onto a sensor chip via amide synthesis. An aqueous solution of NHS (0.0115 g/ml) and EDC (0.038 g/ml) was flowed over the sensor chip at a flow rate of 30 μL/min. After the EDC/NHS-mediated activation of the biochip surface for 10 min, 10 μg/mL of PDGF-BB solution (pH 8.5) was flowed over the chip surface for protein immobilization. Prior to the molecular recognition analysis, the sensor chip was equilibrated for 30 min with a phosphate-buffered saline (PBS) solution containing 0 05% Tween 20. During the binding analysis, 500 nM of binding solution containing either anti-PDGF-BB aptamer or its control was flowed over the biochip at 30 μL/min. The biochip was regenerated with 1 M of NaCl. The binding analysis was repeated twice to confirm the reproducibility. The equilibrium dissociation constant (KD) was calculated with direct curve fitting of the sensorgrams using the software provided by the manufacturer.
# Polyacrylamide gel and anti-platelet-derived growth factor-BB (PDGF-BB) aptamer were used as a model system. […] The binding functionality was evaluated with surface plasmon resonance (SPR) analysis, which directly provides information on the binding affinity.
# [2] = target: T1, PDGF-BB; experiment: SPR; virtually same as S1; details: tags: R&D Systems; amine-coupled to SPR chip; chain copies: 2 (inferred, homodimer)
# Method: (§1) The affinities of the aptamers were measured with surface plasmon resonance (SPR) spectrometry (SR7000DC, Reichert Analytical Instrument, Depew, N.Y.). Carboxyl group-functionalized sensor chips were purchased from the Reichert Analytical Instrument. The chips were initially activated with 0.2 M EDC/0.1 M NHS for 10 min After the activation step, PDGF-BB (20 μg/ml in 25 mM Na₂HPO₄ at pH 8.5) was flowed over the activated sensor chip for protein immobilization. Before the test, the system was equilibrated with the running buffer for 30 min. The running buffer was made of PBS buffer (pH 7.4) containing 0.05% Tween 20. During the test, the aptamer solution was flowed over the sensor chip at a flow rate of 30 μL/minute for 5 minutes. Subsequently, the flowing solution was switched to the running buffer for molecular dissociation. After each test, the sensor chip was regenerated by flowing 1 M NaCl in the channel for 2 minutes and then washed with the running buffer. To determine the dissociation constants, a series of aptamer solutions were prepared with the concentration ranging from 3.13 to 200 nM. The data were processed with the Scrubber 2.0 software (BioLogic Software, Australia). The responses from the reference channel were subtracted from the responses from analyte channel before data analysis to minimize the effects of reflective index changes, nonspecific binding, and instrument drift. The dissociation constant (KD) was determined by fitting the data to a simple biomolecular “1:1 binding” model.
# [3] = target: T1, PDGF-BB; experiment: SPR; COs did not significantly accelerate dissociation; koff only in figure; details: tags: R&D Systems; amine-coupled to SPR chip; chain copies: 2 (inferred, homodimer); three-stem junction
# [4] = target: T1, PDGF-BB; experiment: SPR; PBS pH 7.4, 0.05% Tween 20; equilibrium analysis; details: tags: R&D Systems; amine-coupled to SPR chip; chain copies: 2 (inferred, homodimer)
# Method: as §1
# The interaction of a molecular pair was determined by not only molecular association but also molecular dissociation. The dissociation rate constant divided by the association rate constant is defined as the equilibrium dissociation constant (KD). Thus, a series of aptamer solutions were prepared and the aptamer-protein interactions were characterized by calculating the dissociation constants (FIG. 19). The concentration-dependent responses were processed to calculate KD using an equilibrium analysis. […]
# [5] = target: T1, PDGF-BB; experiment: SPR; PBS with 500 nM scrambled CO during dissociation; details: tags: R&D Systems; amine-coupled to SPR chip; chain copies: 2 (inferred, homodimer)
# Method: The molecular interaction between the PDGF-BB and its aptamer was studied using the SPR spectrometry (SR7000DC; Reichert Analytical Instrument; Depew, N.Y.). A carboxyl group-functionalized sensor chip (Reichert Analytical Instrument; Depew, N.Y.) was activated with NHS and EDC for PDGF-BB immobilization. The binding solution of 100 nM of either anti-PDGF-BB aptamers or scrambled aptamers was flowed over the biochip for 5 minutes (30 μL/min) for the analysis of molecular association. Subsequently, the washing solution (PBS, PBS containing 500 nM of CO, or PBS containing 500 nM of S—CO) was introduced over the biochip for another five minutes (30 μL/min) for the analysis of molecular dissociation. The biochip was regenerated by flowing 1 M of NaCl in the channel for two minutes (100 μL/min) followed by the PBS. The dissociation rate constant (koff) was obtained by fitting the binding profiles with the Scrubber 2.0 software as provided by the manufacturer.
# Because real applications were involve not only aptamers and COs, but also target proteins, surface plasmon resonance (SPR) was used to directly examine the intermolecular hybridization-mediated protein dissociation (FIG. 11).
# [6] = target: T1, PDGF-BB; experiment: SPR; reference for normalized response; PBS pH 7.4, 0.05% Tween 20; details: tags: R&D Systems; amine-coupled to SPR chip; chain copies: 2 (inferred, homodimer); three-stem junction with 10-nt 5' tail
# Method: The affinities of the aptamers were measured with surface plasmon resonance (SPR) spectrometry (SR7000DC, Reichert Analytical Instrument, Depew, N.Y.). Carboxyl group-functionalized sensor chips were purchased from the Reichert Analytical Instrument. The chips were initially activated with 0.2 M EDC/0.1 M NHS for 10 min After the activation step, PDGF-BB (20 μg/ml in 25 mM Na₂HPO₄ at pH 8.5) was flowed over the activated sensor chip for protein immobilization. Before the test, the system was equilibrated with the running buffer for 30 min. The running buffer was made of PBS buffer (pH 7.4) containing 0.05% Tween 20. During the test, the aptamer solution was flowed over the sensor chip at a flow rate of 30 μL/minute for 5 minutes. Subsequently, the flowing solution was switched to the running buffer for molecular dissociation. After each test, the sensor chip was regenerated by flowing 1 M NaCl in the channel for 2 minutes and then washed with the running buffer. To determine the dissociation constants, a series of aptamer solutions were prepared with the concentration ranging from 3.13 to 200 nM. The data were processed with the Scrubber 2.0 software (BioLogic Software, Australia). […] The dissociation constant (KD) was determined by fitting the data to a simple biomolecular “1:1 binding” model.
# T1 sequence (P01127 82-190, one chain of several): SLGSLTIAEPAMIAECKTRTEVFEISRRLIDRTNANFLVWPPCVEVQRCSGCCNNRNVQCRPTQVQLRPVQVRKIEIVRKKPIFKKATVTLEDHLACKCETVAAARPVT
binder,measurement,setting,value
"GCGATACTCCACAGGCTACGGCACGTAGAGCATCACCATGATCCTG (ssDNA, 5'-Acrydite) [anti-PDGF-BB aptamer (higher affinity, 46-nt)]",Kd,[1]; three-stem junction with 10-nt 5' tail,25 nM
"GCGATACTCCACAGCTGACGGCACGGTAAGCATCACCATGATGTCC (ssDNA, 5'-Acrydite) [control (lower-affinity) aptamer]",Kd,[1],220 nM
CGCCATTCAGACAGGCTACGGCACGTAGAGCATCACCATGATCCTG (ssDNA) [S4],binding result,[2],binds
TCGCACATGCACAGGCTACGGCACGTAGAGCATCACCATGATCCTG (ssDNA) [S6],binding result,[2],binds
GCAACTGCTCACAGGCTACGGCACGTAGAGCATCACCATGATCCTG (ssDNA) [S9],binding result,[2],binds
CATGAGCCCTACAGGCTACGGCACGTAGAGCATCACCATGATCCTG (ssDNA) [S10],binding result,[2],binds
ACAGGCTACGGCACGTAGAGCATCACCATGATCCTG (ssDNA) [36-nt truncated aptamer],binding result,[3],binds
GCGATACTCCACAGGCTACGGCACGTAGAGCATCACCATGATCCTA (ssDNA) [M1],Kd,[4],27.6 nM
GCGATACTCCACAGGCTACGGCACGTAGAGCATCACCATGATCCCA (ssDNA) [M2],Kd,[4],109 nM
GCGATACTCCACAGGCTACGGCACGTAGAGCATCACCATGATCTCA (ssDNA) [M3],Kd,[4],354 nM
B1,koff,[5],0.00065 s⁻¹
GCGATACTCCACAGGCTACGGCACGTAGAGCATCACCATGATCCTG (ssDNA) [S1],binding result,[6],binds
CAATTCCGCGACAGGCTACGGCACGTAGAGCATCACCATGATCCTG (ssDNA) [S2],binding result,[2],binds
CCACGGTCTAACAGGCTACGGCACGTAGAGCATCACCATGATCCTG (ssDNA) [S3],binding result,[2],binds
